2 substances from patent US20220090138A1 can be followed below.

Test [1] deals with … (HCMV pp65) presented by HLA-A*0201 (human). Put plainly: cell-based or functional assay.
The target in test [2] is … (EBV LMP2A) presented by HLA-A*0201 (human). Put plainly: cell-based or functional assay.

Regarding “TCR recognizing … presented by A*0201 (PDB #5D2N)”, in test [1], the in vitro T cell activation assay (luciferase); targeting cassette design A came out at 32.5, the in vitro T cell activation assay (luciferase); targeting cassette design B came to 31.8, the in vitro T cell activation assay (luciferase); targeting cassette design C came out at 29.1 and the in vitro T cell activation assay (luciferase); targeting cassette design D stood at 29.1. Also, in test [1], the in vitro T cell activation assay (luciferase); targeting cassette design E stood at 28.4, the in vitro T cell activation assay (luciferase); targeting cassette design F worked out at 20.4, the in vitro T cell activation assay (luciferase); targeting cassette design G was 35 and the in vitro T cell activation assay (luciferase); targeting cassette design H turned out to be 30.3. In test [1], this substance yielded an in vitro T cell activation assay (luciferase); targeting cassette design I of 22.5; an in vitro T cell activation assay (luciferase); targeting cassette design J of 38.1; an induction of luciferase, in vitro T cell activation assay; short cassette AAY of 24.5; a luciferase induction, in vitro T cell activation assay; short cassette 9AA (relative to uninfected controls) of 33.6. In test [1], this substance registered a luciferase induction, in vitro T cell activation assay; short cassette 17AA (relative to uninfected controls) of 42.8; a luciferase induction, in vitro T cell activation assay; short cassette 25AA (relative to uninfected controls) of 42.3; a luciferase induction, in vitro T cell activation assay; short cassette AAY (relative to uninfected controls) of 24.5; a luciferase induction, in vitro T cell activation assay; short cassette DPP (linker designed to disrupt antigen processing) (relative to uninfected controls) of 0.9. The substance further returned a luciferase induction, in vitro T cell activation assay; short cassette RR (relative to uninfected controls) in test [1] of 21.7.

In test [2], “TCR recognizing … presented by A*0201 (PDB #3REV)” had an in vitro T cell activation assay (luciferase); targeting cassette design A of 6.1, an in vitro T cell activation assay (luciferase); targeting cassette design B of 6.3, an in vitro T cell activation assay (luciferase); targeting cassette design C of 7.6 and an in vitro T cell activation assay (luciferase); targeting cassette design D of 7. Further, in test [2], the in vitro T cell activation assay (luciferase); targeting cassette design E turned out to be 5.9, the in vitro T cell activation assay (luciferase); targeting cassette design F was 3.7, the in vitro T cell activation assay (luciferase); targeting cassette design G was determined as 7.6 and the in vitro T cell activation assay (luciferase); targeting cassette design H is 5.4. Moreover, in test [2], the in vitro T cell activation assay (luciferase); targeting cassette design I was found to be 6.2; the in vitro T cell activation assay (luciferase); targeting cassette design J was 6.4; the induction of luciferase, in vitro T cell activation assay; short cassette AAY is 11.3; the luciferase induction, in vitro T cell activation assay; short cassette 9AA (relative to uninfected controls) turned out to be 12. In test [2], this substance had a luciferase induction, in vitro T cell activation assay; short cassette 17AA (relative to uninfected controls) of 10.3; a luciferase induction, in vitro T cell activation assay; short cassette 25AA (relative to uninfected controls) of 14.6; a luciferase induction, in vitro T cell activation assay; short cassette AAY (relative to uninfected controls) of 11.3; a luciferase induction, in vitro T cell activation assay; short cassette RR (relative to uninfected controls) of 8.5.
